In patent publication US20230416352A1:
Where a chain is given by its changes, count along the chain named.

B1: Hu147-11wk (antibody, human IgG1, kappa, V domains shown)
VH: EVQLVESGGGLVQPGGSLRLSCAASGFTFSTYAMNWVRQAPGKGLEWVGRIRTKSNNYATYYADSVKDRFTISRDDSKNSLYLQMNSLKTEDTAVYYCVETGFAYWDQGTLVTVSS
VL: EIVLTQSPATLSLSPGERATLSCSASSSVSYMHWFQQKPGQSPRLLIYSTSNLASGIPARFSGSGSGTDYTLTISSLEPEDFAVYYCQQRSSYPLTFGQGTKLEIKR
B2: Hu147-33wk (antibody, human IgG1, kappa, V domains shown)
VH: B1 VH with T28S, S30N, G49A, K78E, N79S
VL: B1 VL with R44K, L46W, I57V
B3: Hu147-34wk (antibody, human IgG1, kappa, V domains shown)
VH: B1 VH with T28S, S30N, G49A, K78E, N79S
VL: DIQMTQSPSSLSASVGDRVTITCSASSSVSYMHWFQQKPGKSPKLLIYSTSNLASGVPSRFSGSGSGTDYTLTISSLQPEDFATYYCQQRSSYPLTFGQGTKLEIKR
B4: Hu147-21wk (antibody, human IgG1, kappa, V domains shown)
VH: B1 VH with S30N, G49A
VL: B1 VL
B5: Hu147-15wk (antibody, human IgG1, kappa, V domains shown)
VH: B1 VH
VL: B3 VL with M4L, L46W
B6: Hu147-13wk (antibody, human IgG1, kappa, V domains shown)
VH: B1 VH
VL: B1 VL with R44K, L46W, I57V
B7: Hu147-31wk (antibody, human IgG1, kappa, V domains shown)
VH: B1 VH with T28S, S30N, G49A, K78E, N79S
VL: B1 VL
B8: Hu147-24wk (antibody, human IgG1, kappa, V domains shown)
VH: B1 VH with S30N, G49A
VL: B3 VL
B9: Hu147-14wk (antibody, human IgG1, kappa, V domains shown)
VH: B1 VH
VL: B3 VL
B10: Hu147-12wk (antibody, human IgG1, kappa, V domains shown)
VH: B1 VH
VL: B1 VL with R44K
B11: Hu147-22wk (antibody, human IgG1, kappa, V domains shown)
VH: B1 VH with S30N, G49A
VL: B1 VL with R44K
B12: Hu147-32wk (antibody, human IgG1, kappa, V domains shown)
VH: B1 VH with T28S, S30N, G49A, K78E, N79S
VL: B1 VL with R44K
B13: Hu147-23wk (antibody, human IgG1, kappa, V domains shown)
VH: B1 VH with S30N, G49A
VL: B1 VL with R44K, L46W, I57V
B14: Hu95-51yk (antibody, human IgG1, kappa, V domains shown)
VH: EVQLVQSGAEVKKPGASVKVSCRASGFTFTNYAIHWVKQAPGQRLEWMGLVYPYTGGTAYNQKFKDKVTLTFDTSASTAYMELSSLRSEDTAVYYCARWGMIPGTNSYFDVWGQGTTVTVSS
VL: EIVLTQSPATLSLSPGERATLSCRASSSVSYIHWYQQKPGQAPRPWIYATSNLASGIPARFSGSGSGTDYTLTISRLEPEDFAVYYCQQWNSNPWTFGGGTKVEIKR
B15: Hu164-57wl (antibody, human IgG1, lambda, V domains shown)
VH: EVTLKESGPVLVKPTETLTLTCTVSGFSLSTFGVHWIRQPPGKALEWLAVIWRRGGTDYNAAFMSRLTISKDTSKSQVVLTMTNMDPVDTATYYCARDGGFDYWGQGTTVTVSS
VL: ETVVTQEPSLTVSPGGTVTLTCRSSIGAVTTSNYANWVQQKPGQAFRGLIGGTSNRAPWTPARFSGSLLGGKAALTLSGVQPEDEAEYYCALWYSTHYVFGGGTKLTVLG
B16: Hu164-69wl (antibody, human IgG1, lambda, V domains shown)
VH: B15 VH with A44G, A49G, L80F
VL: ESVVTQPPSVSGAPGQRVTISCRSSIGAVTTSNYANWVQQLPGTAFKGLIGGTSNRAPGVPDRFSGSKSGTSASLAITGLQAEDEADYYCALWYSTHYVFGGGTKLTVLG
B17: Hu164-68wl (antibody, human IgG1, lambda, V domains shown)
VH: B15 VH with A44G, A49G, L80F
VL: ETVVTQEPSFSVSPGGTVTLTCRSSIGAVTTSNYANWVQQTPGQAFRGLIGGTSNRAPGVPDRFSGSILGNKAALTITGAQADDESDYYCALWYSTHYVFGGGTKLTVLG
B18: Hu164-87wl (antibody, human IgG1, lambda, V domains shown)
VH: EVQLQESGPGLVKPSQTLSLTCTVSGFSISTFGVHWIRQHPGKGLEWLGVIWRRGGTDYNAAFMSRLTISKDTSKNQVSFKLSSVTAADTAVYYCARDGGFDYWGQGTTVTVSS
VL: B15 VL
B19: Hu164-77wl (antibody, human IgG1, lambda, V domains shown)
VH: B18 VH with L48I, L67V, F80L
VL: B15 VL

Target: Cynomolgus monkey CTGF-Fc (cynomolgus monkey)
Sequence (P29279 other isoform, or with tags, fused parts or gaps limits assumed): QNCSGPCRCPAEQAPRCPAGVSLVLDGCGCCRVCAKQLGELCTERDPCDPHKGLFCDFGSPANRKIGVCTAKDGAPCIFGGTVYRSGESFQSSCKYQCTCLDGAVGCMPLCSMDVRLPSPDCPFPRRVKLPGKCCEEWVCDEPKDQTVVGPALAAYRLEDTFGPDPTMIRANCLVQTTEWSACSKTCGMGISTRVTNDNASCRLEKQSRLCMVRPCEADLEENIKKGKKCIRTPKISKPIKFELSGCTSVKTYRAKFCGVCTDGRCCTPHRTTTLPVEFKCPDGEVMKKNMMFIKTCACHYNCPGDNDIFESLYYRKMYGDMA
Test: ELISA, cyno-CTGF-mFc captured by anti-mFc

Binder	EC50 [nM]
B1	0.052
B2	0.044
B3	0.144
B4	0.053
B5	0.053
B6	0.043
B7	0.07
B8	0.08
B9	0.077
B10	0.062
B11	0.073
B12	0.079
B13	0.063
B14	0.059
B15	0.029
B16	0.032
B17	0.036
B18	0.034
B19	0.038
